# Source: paper PMC5615192 (mBio, 2017)
# Substitutions are numbered along the chain they refer to.
# T1: HPV59 L1 pentamer (human papillomavirus type 59)
# T1 chain: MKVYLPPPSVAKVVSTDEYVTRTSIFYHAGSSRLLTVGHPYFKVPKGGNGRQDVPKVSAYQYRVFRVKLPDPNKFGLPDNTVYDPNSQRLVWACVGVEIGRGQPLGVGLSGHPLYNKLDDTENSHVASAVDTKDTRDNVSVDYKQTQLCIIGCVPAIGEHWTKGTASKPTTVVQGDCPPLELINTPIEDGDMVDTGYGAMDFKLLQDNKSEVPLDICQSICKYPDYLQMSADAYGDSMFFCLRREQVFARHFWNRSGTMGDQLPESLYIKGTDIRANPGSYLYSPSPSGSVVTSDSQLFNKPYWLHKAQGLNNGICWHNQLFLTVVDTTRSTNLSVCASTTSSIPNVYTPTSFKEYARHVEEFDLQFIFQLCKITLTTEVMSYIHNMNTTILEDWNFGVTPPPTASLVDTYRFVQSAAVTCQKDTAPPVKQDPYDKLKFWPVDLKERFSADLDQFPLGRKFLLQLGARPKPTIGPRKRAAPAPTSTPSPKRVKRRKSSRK
# T2: HPV59 L1 VLP (human papillomavirus type 59)
# T2 chain: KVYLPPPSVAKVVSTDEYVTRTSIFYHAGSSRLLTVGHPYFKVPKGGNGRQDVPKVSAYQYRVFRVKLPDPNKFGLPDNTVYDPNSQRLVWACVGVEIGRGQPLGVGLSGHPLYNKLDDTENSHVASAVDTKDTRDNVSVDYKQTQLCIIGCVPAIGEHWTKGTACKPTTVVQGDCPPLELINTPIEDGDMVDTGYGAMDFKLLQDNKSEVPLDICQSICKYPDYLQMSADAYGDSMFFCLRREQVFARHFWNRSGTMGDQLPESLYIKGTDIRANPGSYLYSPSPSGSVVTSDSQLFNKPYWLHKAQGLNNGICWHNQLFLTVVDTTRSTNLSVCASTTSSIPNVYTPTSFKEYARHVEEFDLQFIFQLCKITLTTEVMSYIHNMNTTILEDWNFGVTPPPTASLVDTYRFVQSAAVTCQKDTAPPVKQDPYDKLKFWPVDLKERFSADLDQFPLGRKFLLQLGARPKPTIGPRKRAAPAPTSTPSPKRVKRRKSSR
# T3: HPV58 L1 pentamer (human papillomavirus type 58, UniProt P26535 34-524)
# T3 chain: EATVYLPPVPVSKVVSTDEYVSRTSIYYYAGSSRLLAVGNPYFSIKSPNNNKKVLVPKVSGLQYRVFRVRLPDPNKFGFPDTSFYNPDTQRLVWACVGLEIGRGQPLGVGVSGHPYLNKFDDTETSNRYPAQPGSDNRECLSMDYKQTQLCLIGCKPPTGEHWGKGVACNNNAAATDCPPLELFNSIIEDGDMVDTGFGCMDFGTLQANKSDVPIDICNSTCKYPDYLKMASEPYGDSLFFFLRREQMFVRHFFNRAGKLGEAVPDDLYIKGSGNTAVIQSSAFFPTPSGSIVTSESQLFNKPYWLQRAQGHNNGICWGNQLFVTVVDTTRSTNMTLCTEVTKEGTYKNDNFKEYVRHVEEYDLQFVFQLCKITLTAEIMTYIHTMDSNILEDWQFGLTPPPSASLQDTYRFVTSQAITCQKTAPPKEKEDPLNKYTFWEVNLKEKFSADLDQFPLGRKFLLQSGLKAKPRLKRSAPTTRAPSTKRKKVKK
# T4: HPV58 L1 VLP (human papillomavirus type 58, UniProt P26535 34-524)
# T4 chain: T3 chain
# T5: HPV58 L1 VLP D154A (human papillomavirus type 58) (UniProt P26535)
# T5 sequence: T3 chain with D121A
# T6: HPV58 L1 VLP N308A (human papillomavirus type 58) (UniProt P26535)
# T6 sequence: T3 chain with N275A
# T7: HPV58 L1 VLP R161A (human papillomavirus type 58) (UniProt P26535)
# T7 sequence: T3 chain with R128A
# B1: HPV58 L1 pentamer (natural protein)
# chain: T3 chain
# notes: also called HPV58p; HPV58 pentamer
# B2: MAb 28F10 (antibody, V domains shown)
# VH: DVKLVESGGGLVKPGGSLKLSCAASGFPFSDYTMSWIRQTPEKRLEWVASISSGGTYTYYPDTVKGRFTISRDNAKNTLYLQMSSLKSEDTAMFYCTRASPYYDYDEGYMDYWGQGTSVTVSS
# VL: DVVMTQTPLSLPVSLGDQASISCRSSQSLVHSNGNTYLHWYLQKSGQSPKLLIYKVSNRFSGVPDRFSGSGSGTDFTLKISRVEAEDLGVYFCSQSTHVPFTFGAGTKLELK
# B3: MAb A12A3 (antibody, V domains shown)
# VH: EVQLQQSGAELVRPGALVKLSCKASGFNIKDYYMHWVKQRPEQGLEWIGWIDPENGKTIYDPRFRGKASITADTSSNTAYLQLSSLTSEDAAVYYCATSNYRYDRSFDYWGQGTTLTVSA
# VL: DIQMTQSPSSLFASLGGKVTITCKASQDINKYIAWFQHKPGKGPRLLIHYTFTLQPGIPSRFSGSGSGRDYSFSISNLEPEDIATYYCLQYHNLYTFGGGTKLEIK
# notes: also called A12A3 IgG
# B4: A12A3 Fab (Fab, V domains shown)
# VH: B3 VH
# VL: B3 VL
# notes: also called Fab fragment of A12A3; source: papain digestion of MAb A12A3, purified with DEAE-5PW exchange
# Experiments:
# [1] = biological target: the molecule itself; test: crystal structure
# [2] = biological target: HPV18 TQG L1 VLP (triple mutant T270Q, Q273E, G281D) (human papillomavirus type 18)
# [3] = biological target: T1, HPV59 L1 pentamer; test: ELISA
# [4] = biological target: T2, HPV59 L1 VLP; test: ELISA
# [5] = biological target: HPV59 L1 pentamer M267A (human papillomavirus type 59); test: ELISA; indirect ELISA; wells coated with wild-type or mutant VLPs or pentamers (300 ng/well, overnight at 4°C); 2-fold serial dilutions of the antibody, 1 h at 37°C; detected with HRP goat anti-mouse IgG
# [6] = biological target: HPV59 L1 pentamer Q270A (human papillomavirus type 59); test: as above
# [7] = biological target: HPV33 KAT L1 VLP (triple mutant K161R, A168S, T308N) (human papillomavirus type 33) (UniProt P06416)
# [8] = biological target: T3, HPV58 L1 pentamer; test: ELISA
# [9] = biological target: T4, HPV58 L1 VLP; test: ELISA
# [10] = biological target: T8, HPV58 L1 pentamer (Human papillomavirus type 58 (GenBank …, UniProt P26535)); test: SPR; Biacore 3000; MAb (10 ug/ml) […]; HBS (10 mM HEPES pH 7.4, 150 mM NaCl); […]; details: both partners purified
# T8 construct: also called HPV58p; HPV58 pentamer; source: cloned into pTO-T7
# [11] = biological target: T5, HPV58 L1 VLP D154A (human papillomavirus type 58); test: ELISA; indirect ELISA; wells coated with wild-type or mutant VLPs or pentamers (300 ng/well, overnight at 4°C); 2-fold serial dilutions of the antibody, 1 h at 37°C; detected with HRP goat anti-mouse IgG
# [12] = biological target: T6, HPV58 L1 VLP N308A (human papillomavirus type 58); test: as above
# [13] = biological target: T7, HPV58 L1 VLP R161A (human papillomavirus type 58); test: as above
# [14] = biological target: T9, HPV58 L1 pentamer (human papillomavirus type 58, UniProt P26535); test: crystal structure; details: both partners purified
# T9 construct: also called HPV58p; HPV58 pentamer
binder,measurement,setting,value
B1,stoichiometry N,[1],5
B2,IC50 of neutralisation of HPV18 TQG PsVs,[2],0.0097 µg/mL
same,EC50,[3],0.0464 µg/mL
same,EC50,[4],0.005 µg/mL
same,fold increase of the EC50 against the WT HPV59 pentamer,[5],10 fold
same,fold increase of the EC50 against the WT HPV59 pentamer,[6],20 fold
B3,IC50 of neutralisation of the HPV33 KAT PsV mutant,[7],4.3 µg/mL
same,EC50,[8],0.0085 µg/mL
same,EC50,[9],0.0104 µg/mL
same,Ka,[10],1.91e+08 M⁻¹
same,Kd,[10],5.33 nM
same,koff,[10],0.0004 s⁻¹
same,kon,[10],78400 M⁻¹ s⁻¹
same,fold increase of the EC50 against the WT HPV58 VLP,[11],2 fold
same,fold increase of the EC50 against the WT HPV58 VLP,[12],2 fold
same,fold increase of the EC50 against the WT HPV58 VLP,[13],80 fold
B4,stoichiometry N,[14],1 Fab per pentamer
